From US20180002437A1 (ABRUZZO THERANOSTIC S R L, published 2018) come the findings set out here.

Test [1] addresses T1, human Trop-2 on the cell surface (native, endogenous or transfected) (human, UniProt P09758 27-323).
T1 construct: On Colo205, HT29 and MCF7 cells (endogenous) and on KM12SM and murine MTE 4-14 cells transfected with Trop-2; For the transfectants the species of the Trop-2 is not repeated in the sentence; also called TACSTD-2; native Trop-2
T1 sequence: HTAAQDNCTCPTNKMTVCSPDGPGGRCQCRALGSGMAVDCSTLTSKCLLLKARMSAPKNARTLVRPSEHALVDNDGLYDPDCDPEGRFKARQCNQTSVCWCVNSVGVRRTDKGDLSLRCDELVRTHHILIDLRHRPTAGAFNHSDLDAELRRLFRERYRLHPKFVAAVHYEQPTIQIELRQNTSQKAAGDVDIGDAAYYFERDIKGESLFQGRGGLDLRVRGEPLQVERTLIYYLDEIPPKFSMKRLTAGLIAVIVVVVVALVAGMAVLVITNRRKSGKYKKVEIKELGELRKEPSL
The test is described as follows: flow cytometry competition with 2G10-488 on MTE 4-14/Trop-2 and MCF7 cells (sentence also sums up the competitive ELISA). An excerpt:
The binding to Trop-2 of the purified Ch2G10, Hu2G10-5 and Hu2G10-6 antibodies was also characterized by flow cytometry using alive cells that express native surface Trop-2 (either ndogenous or transfected). […] The cells were then washed and analyzed by flow cytometry as described.
Background: A flow cytometer gives signals particle by particle.

Test [2] concerns the target T1, human Trop-2 on the cell surface …. The test is described as follows: cell-based or functional assay.
The target is the same in test [3]. Nature of the test: flow cytometry competition on Colo205 cells, competitor of 2EF-488 at 9x and 27x. The procedure: (§1) The relative affinity of Hu2EF-4 e Hu2EF-5 for the native Trop-2 antigen was also analysed by means of […] competitive binding measured by flow cytometry on live tumor cells that express surface Trop-2. […] After 20 min at 4° C. cells were washed with 5 ml of SM and resuspended in 500 μl di SM with 0.5 μg/ml propidioiodide to discriminate dead cells). Fluorescence was then analysed by flow cytometry (FACScalibur, FACScan, Becton Dickinson, Sunnyvale, Calif.) as previously described (Alberti, Nutini et al. 1994) (FIG. 31). […] Simila results were obtained for the Hu2EF-4 antibody.

The target is the same in test [4]. The test is described as follows: flow cytometry competition on Colo205 cells, competitor of 2EF-488. As for the experimental part:
as §1

Test [5] has the same target. The test is described as follows: flow cytometry competition on Colo205 cells (FIG. 31 and FIG. 37). As for the experimental part:
FIG. 37: Relative affinity of the 2EF and Hu2EF-7 antibodies for native Trop-2—Flow citometry analysis. Human colon cancer COLO205 cells, which are positive for Trop-2, were incubated with FITC-labelled 2EF antibody pre-mixed with increasing concentrations of unlabelled Hu2EF-7 purified from CHO-K1 or YB2/0 cells.
as §1

For test [6] the target is unchanged. Nature of the test: flow cytometry, MCF-7 cells, goat anti-human Alexa-488. The procedure:
FIG. 38: Specific recognition of Trop-2 by the humanized monoclonal antibodies according to the present invention - analysis by flow cytometry. (A) human metastatic colon cancer KM12SM cells transfected with a vector expressing Trop-2 (left panel) or with the empty vector (right panel) were incubated with the ‘humanized anti-Trop-2 monoclonal antibody Hu2EF-7. […] Unstained negative controls (thin line) are shown for comparison. (B) Human colon cancer HT29 cells (left panel) or breast cancer MCF-7 cells (right panel) expressing Trop-2 were incubated with the humanized Hu-2EF-7 and Hu-2G10-6anti-Trop-2monoclonal antibodies respectively.

B1: chimeric 2G10 IgG1/kappa antibody (Ch2G10) (antibody, V domains shown)
VH: QGQMQQSGAELVKPGASVKLSCKTSGFTFSSSYISWLKQKPRQSLEWIAWIYAGTGGTSYNQKFTGKAQLTVDTSSSTAYMQLSSLTSEDSAIYYCARHNPRYYAMDYWGQGTSVTVSS
VL: ETTVTQSPASLSMAIGEKVTIRCITSTDIDDDMNWYQQKPGEPPKLLISEGNTLRPGVPSRFSSSGYGTDFVFTIENMLSEDVADYYCLQSDNLPYTFGGGTKLEIKR
notes: also called Ch2G10-IgG1/k
On to B1, for which, in test [1], the binding result is reported as “binds”.

B2: mouse 2G10 antibody (hybridoma PD 08020) (antibody, V domains shown)
VH: QGQMQQSGAELVKPGASVKLSCKTSGFTFSSSYISWLKQKPRQSLEWIAWIYAGTGGTSYNQKFTGKAQLTVDTSSSTAYMQLSSLTSEDSAIYYCARHNPRYYAMDYWGQGTSVTVSS
VL: ETTVTQSPASLSMAIGEKVTIRCITSTDIDDDMNWYQQKPGEPPKLLISEGNTLRPGVPSRFSSSGYGTDFVFTIENMLSEDVADYYCLQSDNLPYTFGGGTKLEIK
notes: Mouse monoclonal from the hybridoma; also called murine 2G10
Take B2: the binding result in test [1] is “binds”.

B3: humanized Hu2EF-7 antibody (Hu2EF VH7 and VL2, IgG1/kappa) (antibody, V domains shown)
VH: QVQLVQSGAEVKKPGASVKVSCKASGYTFTNYWIGWVKQAPGQGLEWIGDIYPGGGYTNYNEKFKGRATLTADTSASTAYMELSSLRSEDTAVYYCARGTGGGDYWGQGTLVTVSS
VL: DIVLTQSPDSLAVSLGERATINCRASQSVSTSSYSYMHWYQQKPGQPPKLLIKYASNLESGVPDRFSGSGSGTDFTLTISSLQAEDVAVYYCQHSWEIPYTFGGGTKLEIKR
For B3, the “EC50 of ADCC reporter bioassay (luciferase luminescence; Jurkat effector cells with V158 FcgammaRIIIa and NFAT-luciferase; MCF7 target cells)” value in test [2] was found to be 52 ng/mL.

B4: humanized Hu2EF-5 antibody (VH5-Hu2EF and VL1-Hu2EF, IgG1/kappa) (antibody, V domains shown)
VH: QVQLVQSGAEVKKPGASVKVSCKASGYTFTNYWIGWVRQAPGQGLEWIGDIYPGGGYTNYNEKFKGRATLTADTSTSTAYMELSSLRSEDTAVYYCARGTGGGDYWGQGTLVTVSS
VL: DIVMTQSPDSLAVSLGERATINCRASQSVSTSSYSYMHWYQQKPGQPPKLLIKYASNLESGVPDRFSGSGSGTDFTLTISSLQAEDVAVYYCQHSWEIPYTFGQGTKLEIK
notes: human IgG1/kappa constant regions
Regarding B4, in test [3], the binding result is “binds”.

B5: humanized Hu2EF-4 antibody (VH4-Hu2EF and VL1-Hu2EF, IgG1/kappa) (antibody, V domains shown)
VH: QVQLVQSGAEVKKPGASVKVSCKASGYTFTNYWIGWVRQAPGQGLEWIGDIYPGGGYTNYNEKFKGRATLTADTSASTAYMELSSLRSEDTAVYYCARGTGGGDYWGQGTLVTVSS
VL: DIVMTQSPDSLAVSLGERATINCRASQSVSTSSYSYMHWYQQKPGQPPKLLIKYASNLESGVPDRFSGSGSGTDFTLTISSLQAEDVAVYYCQHSWEIPYTFGQGTKLEIK
notes: as for B4
For B5, in test [4], the binding result was “binds”.

B6: mouse 2EF antibody (hybridoma PD 08021) (antibody, V domains shown)
VH: QVQLQQSGAELVRPGTSVKMSCKAAGYTFTNYWIGWVKQRPGHGLEWIGDIYPGGGYTNYNEKFKGKATLTADTSSSTAYMQLSSLTSEDSAIYYCARGTGGGDYWGQGTLVTVSA
VL: DIVLTQSPASLAVSLGQRATISCRASQSVSTSSYSYMHWYQQKPGQPPKLLIKYASNLESGVPARFSGSGSGTDFTLNIHPVEEEDTATYYCQHSWEIPYTFGGGTKLEIK
notes: Mouse monoclonal purified from the hybridoma; also called murine 2EF
As for B6, the binding result in test [5] is “binds”.

B7: humanized Hu2G10-6 antibody (Hu2G10 VH2 and VL3, IgG1/kappa) (antibody, V domains shown)
VH: QVQLVQSGAEVKKPGASVKVSCKASGFTFSSSYISWLRQAPGQRLEWIAWIYAGTGGTSYNQKFTGRVTLTVDTSASTAYMELSSLRSEDTAVYYCARHNPRYYAMDYWGQGTTVTVSS
VL: DTQMTQSPSSLSASVGDRVTITCITSTDIDDDMNWYQQKPGKAPKLLISEGNTLRPGVPSRFSGSGYGTDFTFTISSLQPEDIATYYCLQSDNLPYTFGGGTKVEIKR
As for B7, in test [6], the binding result is reported as “binds”.

B8: humanized Hu2G10-5 antibody (Hu2G10 VH1 and VL3, IgG1/kappa) (antibody, V domains shown)
VH: QVQLVQSGAEVKKPGASVKVSCKASGFTFSSSYISWLRQAPGQRLEWIAWIYAGTGGTSYNQKFTGKATLTVDTSASTAYMELSSLRSEDTAVYYCARHNPRYYAMDYWGQGTTVTVSS
VL: DTQMTQSPSSLSASVGDRVTITCITSTDIDDDMNWYQQKPGKAPKLLISEGNTLRPGVPSRFSGSGYGTDFTFTISSLQPEDIATYYCLQSDNLPYTFGGGTKVEIKR
For B8, the “EC50 of ADCC reporter bioassay (luciferase luminescence; Jurkat effector cells with V158 FcgammaRIIIa and NFAT-luciferase; MCF7 target cells)” value in test [2] was 4150 ng/mL.
